Reference: patent US7598225B1 (priority 1995, dated 2009)

Key:
[1] = target: human HLA A2 molecules (Homo sapiens, UniProt P04439, /I121R/I166T/I218V/L300P/L318F/N151K/N90K/P208A/P217A/Q86G/Q94H/R138H/R169H/T345S); assay type: binding
[2] = test system: PBMC from donors expressing the HLA A2 class 1 allele; assay type: cell-based, human

Substance | score in T2 cell binding assay [1] | T cell lines from PBMC of two prostate cancer patients [2]
PSA 141-150: PSA peptide, amino acids 141-150, sequence F L T P K K L Q C V (Table 7) (FLTPKKLQCV) | positive | 
PSA 146-154: PSA peptide, amino acids 146-154, sequence K L Q C V D L H V (Table 7) (KLQCVDLHV) | positive | 
PSA 154-163: PSA peptide, amino acids 154-163, sequence V I S N D V C A Q V (Table 7) (VISNDVCAQV) | positive | established
